Measured values as given in patent US20040006782A1.

Target: nicotinic acetylcholine receptor containing the alpha6 subunit (mouse, native in brain of wild type animals) (mouse), Q9R0W9
Sequence (Q9R0W9 31-494, chain 1 of 2): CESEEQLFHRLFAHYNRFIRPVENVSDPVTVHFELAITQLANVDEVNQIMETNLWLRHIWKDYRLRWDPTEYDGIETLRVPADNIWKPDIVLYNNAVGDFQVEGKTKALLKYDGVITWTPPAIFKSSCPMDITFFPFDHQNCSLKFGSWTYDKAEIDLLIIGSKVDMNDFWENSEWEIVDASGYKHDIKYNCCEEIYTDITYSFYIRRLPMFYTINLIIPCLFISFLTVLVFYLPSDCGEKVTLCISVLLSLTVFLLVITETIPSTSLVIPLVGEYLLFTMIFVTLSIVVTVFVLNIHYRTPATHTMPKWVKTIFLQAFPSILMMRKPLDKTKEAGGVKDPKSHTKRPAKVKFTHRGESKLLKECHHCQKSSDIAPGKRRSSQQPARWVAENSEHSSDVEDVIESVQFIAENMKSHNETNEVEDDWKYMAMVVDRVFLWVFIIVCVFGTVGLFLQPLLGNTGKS
Sequence (Q9ERK7 26-501, chain 2 of 2, further chain): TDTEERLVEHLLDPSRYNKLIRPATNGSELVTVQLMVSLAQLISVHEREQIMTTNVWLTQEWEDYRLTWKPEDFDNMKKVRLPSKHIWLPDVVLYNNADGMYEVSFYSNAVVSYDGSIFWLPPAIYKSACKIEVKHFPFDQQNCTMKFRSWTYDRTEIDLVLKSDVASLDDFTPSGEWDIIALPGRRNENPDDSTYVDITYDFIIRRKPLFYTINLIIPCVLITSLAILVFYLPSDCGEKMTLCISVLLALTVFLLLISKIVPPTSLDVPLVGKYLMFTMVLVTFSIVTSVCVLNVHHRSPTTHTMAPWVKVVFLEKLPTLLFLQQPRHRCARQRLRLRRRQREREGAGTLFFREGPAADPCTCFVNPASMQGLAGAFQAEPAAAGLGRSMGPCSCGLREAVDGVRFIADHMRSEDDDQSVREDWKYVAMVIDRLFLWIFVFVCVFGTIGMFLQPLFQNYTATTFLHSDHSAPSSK

B1: α-conotoxin MII, P56636 49-64 (peptide)
peptide: GCCSNPVCHLEHSNLC
modifications: not checked
  share of epibatidine binding sites sensitive to αCtxMII: 20%
